B1: NLV3 TCR beta chain (CDR3β only) (parent)
chain: ASSPTGGSPSPLH

Variants of: B1
Assay: T-Switch: Jurkat TCRβ−/− cells expressing a CDR3 saturation-mutagenesis library, stained with two peptide-HLA-A*02:01 tetramers (original and novel peptide) plus anti-CD3, FACS-sorted into four gates, gDNA sequenced
Settings: tetramers 1 µg/mL, 30 min on ice, SP, DP and SW gates expanded about 10 days between rounds ('two to three rounds of selection' in the Methods), unresolved parent, parent is a CDR3 fragment, scale: fold enrichment, numbering: sequential-on-construct, sequence starts at 1
[1] = with both tetramers (double-negative gate, binds neither): HLA-A*02:01 with … and with …, gate DN: OPPOSITE: higher = more of the variant in the gate that binds neither peptide = LESS binding (or no expression; inferred). Fold enrichment of the CDR3 variant in one FACS gate of a two-tetram
[2] = with both tetramers (double-positive gate): HLA-A*02:01 with … and with …, gate DP: higher = more of the variant in the gate that binds both peptides. Fold enrichment of the CDR3 variant in one FACS gate of a two-tetramer stain. SP/DP/SW gates were expanded and re-sorted bef

Row | Variant | enrichment [1] | enrichment [2]
1 | […] (CDR3 as printed); L12R derived by comparing it with the table's wild-type CDR3 ASSPTGGSPSPLH | 0.619 | 0
2 | […] (CDR3 as printed); P4N derived by comparing it with the table's wild-type CDR3 ASSPTGGSPSPLH | 1.17 | 0
3 | […] (CDR3 as printed); G7S derived by comparing it with the table's wild-type CDR3 ASSPTGGSPSPLH | 1.32 | 0
4 | […] (CDR3 as printed); L12C derived by comparing it with the table's wild-type CDR3 ASSPTGGSPSPLH | 0.764 | 0
5 | […] (CDR3 as printed); S10H derived by comparing it with the table's wild-type CDR3 ASSPTGGSPSPLH | 0.949 | 0
6 | […] (CDR3 as printed); P11V derived by comparing it with the table's wild-type CDR3 ASSPTGGSPSPLH | 1.05 | 0
7 | […] (CDR3 as printed); S2G derived by comparing it with the table's wild-type CDR3 ASSPTGGSPSPLH | 0.981 | 0
8 | […] (CDR3 as printed); H13K derived by comparing it with the table's wild-type CDR3 ASSPTGGSPSPLH | 0.708 | 0
9 | […] (CDR3 as printed); P11R derived by comparing it with the table's wild-type CDR3 ASSPTGGSPSPLH | 0.579 | 0
10 | […] (CDR3 as printed); G6M derived by comparing it with the table's wild-type CDR3 ASSPTGGSPSPLH | 0.906 | 0
11 | […] (CDR3 as printed); S8C derived by comparing it with the table's wild-type CDR3 ASSPTGGSPSPLH | 0.677 | 0
12 | […] (CDR3 as printed); G6E derived by comparing it with the table's wild-type CDR3 ASSPTGGSPSPLH | 1.12 | 0
13 | […] (CDR3 as printed); P9E derived by comparing it with the table's wild-type CDR3 ASSPTGGSPSPLH | 0.929 | 0
14 | […] (CDR3 as printed); H13Q derived by comparing it with the table's wild-type CDR3 ASSPTGGSPSPLH | 0.592 | 0
15 | […] (CDR3 as printed); T5C derived by comparing it with the table's wild-type CDR3 ASSPTGGSPSPLH | 1.08 | 0
16 | […] (CDR3 as printed); L12F derived by comparing it with the table's wild-type CDR3 ASSPTGGSPSPLH | 1.49 | 0
17 | […] (CDR3 as printed); L12G derived by comparing it with the table's wild-type CDR3 ASSPTGGSPSPLH | 0.618 | 0
18 | […] (CDR3 as printed); S3G derived by comparing it with the table's wild-type CDR3 ASSPTGGSPSPLH | 0.543 | 0
19 | […] (CDR3 as printed); T5A derived by comparing it with the table's wild-type CDR3 ASSPTGGSPSPLH | 0.817 | 0
20 | […] (CDR3 as printed); S8W derived by comparing it with the table's wild-type CDR3 ASSPTGGSPSPLH | 0.85 | 0

Row | Variant | enrichment [1] | enrichment [2]
21 | […] (CDR3 as printed); P11M derived by comparing it with the table's wild-type CDR3 ASSPTGGSPSPLH | 0.318 | 0
22 | […] (CDR3 as printed); P11W derived by comparing it with the table's wild-type CDR3 ASSPTGGSPSPLH | 0.701 | 0
23 | […] (CDR3 as printed); P11I derived by comparing it with the table's wild-type CDR3 ASSPTGGSPSPLH | 1.19 | 0
24 | […] (CDR3 as printed); G6R derived by comparing it with the table's wild-type CDR3 ASSPTGGSPSPLH | 0.796 | 0
25 | […] (CDR3 as printed); P9N derived by comparing it with the table's wild-type CDR3 ASSPTGGSPSPLH | 1.65 | 0
26 | […] (CDR3 as printed); S2H derived by comparing it with the table's wild-type CDR3 ASSPTGGSPSPLH | 0.777 | 0
27 | […] (CDR3 as printed); T5K derived by comparing it with the table's wild-type CDR3 ASSPTGGSPSPLH | 0.965 | 0
28 | […] (CDR3 as printed); P11S derived by comparing it with the table's wild-type CDR3 ASSPTGGSPSPLH | 1.52 | 0
29 | […] (CDR3 as printed); S10K derived by comparing it with the table's wild-type CDR3 ASSPTGGSPSPLH | 1.05 | 0
30 | […] (CDR3 as printed); A1S derived by comparing it with the table's wild-type CDR3 ASSPTGGSPSPLH | 1.25 | 0
31 | […] (CDR3 as printed); S8A derived by comparing it with the table's wild-type CDR3 ASSPTGGSPSPLH | 0.6 | 0
32 | […] (CDR3 as printed); L12S derived by comparing it with the table's wild-type CDR3 ASSPTGGSPSPLH | 0.878 | 0
33 | […] (CDR3 as printed); S10G derived by comparing it with the table's wild-type CDR3 ASSPTGGSPSPLH | 0.33 | 0
34 | […] (CDR3 as printed); P4F derived by comparing it with the table's wild-type CDR3 ASSPTGGSPSPLH | 1.02 | 0
35 | […] (CDR3 as printed); G6K derived by comparing it with the table's wild-type CDR3 ASSPTGGSPSPLH | 1.4 | 0
36 | […] (CDR3 as printed); P9I derived by comparing it with the table's wild-type CDR3 ASSPTGGSPSPLH | 1.11 | 0
37 | […] (CDR3 as printed); L12N derived by comparing it with the table's wild-type CDR3 ASSPTGGSPSPLH | 0.99 | 0
38 | […] (CDR3 as printed); P9T derived by comparing it with the table's wild-type CDR3 ASSPTGGSPSPLH | 1.11 | 0
39 | […] (CDR3 as printed); P4S derived by comparing it with the table's wild-type CDR3 ASSPTGGSPSPLH | 0.973 | 0
40 | […] (CDR3 as printed); P9R derived by comparing it with the table's wild-type CDR3 ASSPTGGSPSPLH | 1.13 | 0

Row | Variant | enrichment [1] | enrichment [2]
41 | […] (CDR3 as printed); T5N derived by comparing it with the table's wild-type CDR3 ASSPTGGSPSPLH | 0.924 | 0
42 | […] (CDR3 as printed); S8G derived by comparing it with the table's wild-type CDR3 ASSPTGGSPSPLH | 0.725 | 0
43 | […] (CDR3 as printed); G7Q derived by comparing it with the table's wild-type CDR3 ASSPTGGSPSPLH | 1.09 | 0
44 | […] (CDR3 as printed); G6N derived by comparing it with the table's wild-type CDR3 ASSPTGGSPSPLH | 1.47 | 0
45 | […] (CDR3 as printed); S3K derived by comparing it with the table's wild-type CDR3 ASSPTGGSPSPLH | 1.11 | 0
46 | […] (CDR3 as printed); A1L derived by comparing it with the table's wild-type CDR3 ASSPTGGSPSPLH | 0.861 | 0
47 | […] (CDR3 as printed); G7R derived by comparing it with the table's wild-type CDR3 ASSPTGGSPSPLH | 1.17 | 0
48 | […] (CDR3 as printed); P9V derived by comparing it with the table's wild-type CDR3 ASSPTGGSPSPLH | 0.664 | 0
49 | […] (CDR3 as printed); S2R derived by comparing it with the table's wild-type CDR3 ASSPTGGSPSPLH | 0.703 | 0
50 | […] (CDR3 as printed); S3A derived by comparing it with the table's wild-type CDR3 ASSPTGGSPSPLH | 0.616 | 0
51 | […] (CDR3 as printed); A1Y derived by comparing it with the table's wild-type CDR3 ASSPTGGSPSPLH | 1.15 | 0
52 | […] (CDR3 as printed); P4G derived by comparing it with the table's wild-type CDR3 ASSPTGGSPSPLH | 0.753 | 0
53 | […] (CDR3 as printed); H13L derived by comparing it with the table's wild-type CDR3 ASSPTGGSPSPLH | 0.846 | 0
54 | […] (CDR3 as printed); S8R derived by comparing it with the table's wild-type CDR3 ASSPTGGSPSPLH | 0.977 | 0
55 | […] (CDR3 as printed); S8N derived by comparing it with the table's wild-type CDR3 ASSPTGGSPSPLH | 1.07 | 0
56 | […] (CDR3 as printed); P11H derived by comparing it with the table's wild-type CDR3 ASSPTGGSPSPLH | 1.37 | 0
57 | […] (CDR3 as printed); G7A derived by comparing it with the table's wild-type CDR3 ASSPTGGSPSPLH | 0.658 | 0
58 | […] (CDR3 as printed); P9K derived by comparing it with the table's wild-type CDR3 ASSPTGGSPSPLH | 0.805 | 0

Source: PMC13397619
